Results on 1 molecule are retold here after patent US8889408B2, “Factor taking part in transcription control” (Sony Corporation, priority 2002, dated 2014).

The subject of assay [1] is retinoic acid receptor. Briefly: RAR reporter CAT analysis in HepG2 cells. Type of assay: cell-based. The settings on record: pcDNA3-HDART 0, 0.5, 1.0 μg; ATRA 10^−8 M; HepG2 cells. The procedure:
Since it is shown in the above example that HDART is able to interact with Skip, the functional role of HDART on the transcription route ascribed to a nuclear receptor was analyzed. First, the effect of HDART on the transcription regulation by retinoic acid receptor was analyzed. For this purpose, the CAT analysis was made using a RAR (retinoid acid receptor) reporter plasmid incorporating a thymidine kinase minimum promoter (pTREpal-tata) and CAT gene therein downstream of a retinoid response element.
More particularly, pcDNA3-HDART, capable of steadily expressing HDART, and, at the same time, RAR reporter plasmid, were transfected into HepG2 cells by use of Effectene kit (QIAGEN™). It is to be noted that the pcDNA3-HDART expression vector was introduced in different amounts of 0, 0.5 and 1.0 μg, and the amount of DNA in the respective transfections was equalized at 1 μg by adding the appropriate amount of a vacant vector of pcDNA. After the transfection, growth was made in the presence (10^−8 M) or absence of ATRA and the CAT activity was measured. The results of the measurement (FIG. 6) are indicated in terms of values corrected on the basis of the CAT activity obtained after introduction of 1.0 μg of a vacant vector in the absence of ATRA. In addition, the average of the results of three experiments and a standard deviation in terms of an error bar are also shown.
Next, the influence of the overexpression of N4TPR on the transcription from RAR or a glucocorticoid responsive promoter was checked. It will be noted that this test was made in the same manner as in the reporter analysis set out in Example 4, but using GFP-N4TPR expression vector (0, 0.3 and 0.5 μg).

Assay [2] has as its target HDAC3 (Homo sapiens, UniProt O15379). The assay is described as follows: GST pulldown analysis. The settings on record: GST-HDART fused protein versus GST protein. The class given is binding. The text has this:
Further, the direct interaction between HDART and HDAC3 was investigated by GST pulldown analysis. The GST pulldown analysis was essentially carried out according to a known procedure (Tzamarias, D., and Struhl, K. (1995) Genes Dev 9(7), 821-31.). Using TNT (Registered Trademark) in vitro transcription/translation system (Promega), the in vitro translation of HDAC3 was made in the presence of ^35S-methionine. GST protein or GST-HDART fused protein was, respectively, expressed within Escherichia coli, followed by purification in a GST binding buffer solution (50 mM tris-HCl, 200 mM LiCl, 0.5% NP40, 5 mM EDTA, 1 mM PMSF) by use of glutathione sepharose. A binding reaction solution containing GST-HDART fused protein or control GST protein (about 1 μg) and ^35S-radio-labeled in vitro translation product (10 μl) in 1 ml of the GST binding buffer solution was prepared. This reaction solution was incubated at 4° C. for one hour while shaking, after which the resulting the sepharose-GST protein complex was washed five times with the GST binding buffer solution. […] It was confirmed by Coomassie brilliant blue staining that the GST fused protein was equally electrophoresed, and ^35S-radio-labeled HDAC was detected according to autoradiography.

Assay [3] has as its target T1, Skip (Homo sapiens, UniProt Q13573).
T1 sequence (Q13573 1-536): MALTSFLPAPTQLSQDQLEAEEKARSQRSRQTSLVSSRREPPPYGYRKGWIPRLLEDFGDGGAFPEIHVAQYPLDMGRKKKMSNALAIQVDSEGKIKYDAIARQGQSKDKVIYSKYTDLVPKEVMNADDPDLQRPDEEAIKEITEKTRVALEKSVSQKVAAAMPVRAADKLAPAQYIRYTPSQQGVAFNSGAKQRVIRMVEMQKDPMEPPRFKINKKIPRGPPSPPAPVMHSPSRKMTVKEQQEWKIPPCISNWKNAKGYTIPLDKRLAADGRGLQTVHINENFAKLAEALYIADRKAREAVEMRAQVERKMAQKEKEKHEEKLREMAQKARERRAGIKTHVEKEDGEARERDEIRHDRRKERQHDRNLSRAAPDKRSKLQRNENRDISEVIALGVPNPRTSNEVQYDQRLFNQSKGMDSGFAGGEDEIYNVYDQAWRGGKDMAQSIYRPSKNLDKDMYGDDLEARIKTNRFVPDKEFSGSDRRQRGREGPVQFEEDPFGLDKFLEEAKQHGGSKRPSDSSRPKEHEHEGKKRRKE
The assay is described as follows: Immunoprecipitation analysis of HDART-Skip interaction in 293 cells. The class given is binding. Further details: expressed in transfected cells; host or cells: HEK293 cells. The procedure:
The interaction between HDART and Skip inside the mammalian cells was confirmed according to the immunoprecipitation analysis. For the confirmation, the Flag-Skip expression vector expressing the Flag-Skip fused protein and the GFP-HDART expression protein expressing the GFP-HDART fused protein (FIG. 4A) were transfected into HEK293 cells by use of Effectene kit (QIAGEN™). It will be noted that a control experiment was conducted such that the Flag-Skip expression vector alone and the GFP-HDART expression vector were, respectively, transfected into cells of the same type under the same conditions.
24 hours after the transfection, the cells were lysed on ice for 30 minutes in a Nonidet P-40 buffer solution (50 mM Tris HCl (pH 7.6), 150 mM NaCl, 5 mM EDTA, 0.5% Nonidet P-40 and 1 mM PMSF) containing 100 μl of a protease inhibitory substance cocktail (Sigma #p8340) to prepare a cell extract (1 mg). This extract was incubated for 30 minutes at 4° C. along with 40 μl of protein A/G sepharose beads for preliminary clarification. Next, the thus clarified supernatant extract was further incubated for 1 hour along with an anti-Flag antibody or a negative control mouse IgG antibody (2 μg), followed by precipitation for 30 minutes by use of 40 μl of protein A/G sepharose beads. […]
Further, the interaction of endogenous HDART and externally introduced Skip was analyzed. […]

Chain of HDAC3 (O15379 whole entry, species assumed, the tested form may be a part): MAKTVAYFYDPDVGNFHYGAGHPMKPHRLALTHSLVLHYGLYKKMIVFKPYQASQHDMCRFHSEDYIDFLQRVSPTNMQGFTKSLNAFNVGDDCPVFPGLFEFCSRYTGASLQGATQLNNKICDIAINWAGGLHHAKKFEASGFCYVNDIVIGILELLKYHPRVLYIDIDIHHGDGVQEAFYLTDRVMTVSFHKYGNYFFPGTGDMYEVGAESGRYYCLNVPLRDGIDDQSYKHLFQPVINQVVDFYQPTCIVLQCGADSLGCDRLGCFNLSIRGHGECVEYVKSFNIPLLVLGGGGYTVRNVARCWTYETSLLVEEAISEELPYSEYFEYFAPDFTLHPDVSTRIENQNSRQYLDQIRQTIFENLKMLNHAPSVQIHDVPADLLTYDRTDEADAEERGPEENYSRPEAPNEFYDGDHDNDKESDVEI

B1: HDART: HDAC associated repressor TPR protein, 855 amino acids, SEQ ID NO: 2; transcription repressing factor, used as fusions or expressed from vector (protein, listed as Homo sapiens)
chain: MVVMARLSRPERPDLVFEEEDLPYEEEIMRNQFSVKCWLRYIEFKQGAPKPRLNQLYERALKLLPCSYKLWYRYLKARRAQVKHRCVTDPAYEDVNNCHERAFVFMHKMPRLWLDYCQFLMDQGRVTHTRRTFDRALRALPITQHSRIWPLYLRFLRSHPLPETAVRGYRRFLKLSPESAEEYIEYLKSSDRLDEAAQRLATVVNDERFVSKAGKSNYQLWHELCDLISQNPDKVQSLNVDAIIRGGLTRFTDQLGKLWCSLADYYIRSGHFEKARDVYEEAIRTVMTVRDFTQVFDSYAQFEESMIAAKMETASELGREEEDDVDLELRLARFEQLISRRPLLLNSVLLRQNPHHVHEWHKRVALHQGRPREIINTYTEAVQTVDPFKATGKPHTLWVAFAKFYEDNGQLDDARVILEKATKVNFKQVDDLASVWCQCGELELRHENYDEALRLLRKATALPARRAEYFDGSEPVQNRVYKSLKVWSMLADLEESLGTFQSTKAVYDRILDLRIATPQIVINYAMFLEEHKYFEESFKAYERGISLFKWPNVSDIWSTYLTKFIARYGGRKLERARDLFEQALDGCPPKYAKTLYLLYAQLEEEWGLARHAMAVYERATRAVEPAQQYDMFNIYIKRAAEIYGVTHTRGIYQKAIEVLSDEHAREMCLRFADMECKLGEIDRARAIYSFCSQICDPRTTGAFWQTWKDFEVRHGNEDTIKEMLRIRRSVQATYNTQVNFMASQMLKVSGSATGTVSDLAPGQSGMDDMKLLEQRAEQLAAEAERDQPLRAQSKILFVRSDASREELAELAQQVNPEEIQLGEDEDEDEMDLEPNEVRLEQQSVPAAVFGSLKED
On to B1, for which, in assay [1], the “ATRA-induced CAT activity” value is “inhibited by HDART in a concentration dependent manner”. Besides, the “pulldown of in vitro translated HDAC3” value in assay [2] was “pulled down”. The “co-precipitation of endogenous HDART with Flag-Skip” value in assay [3] (293 cells, anti-Flag antibody) was “co-precipitated”. Besides, the “interaction of foreign HDART (GFP-HDART) with Flag-Skip” value in assay [3] (co-expression in 293 cells, immunoprecipitation with anti-Flag antibody) is listed as “specifically interact”.
